Results: the Human Domainome abundance scans (Beltran et al. 2025)
± gives the uncertainty stated by the source.

B1: Glucocorticoid receptor, residues 419 to 494; numbered along this chain, P04150 (parent)
chain: KLCLVCSDEASGCHYGVLTCGSCKVFFKRAVEGQHNYLCAGRNDCIIDKIRRKNCPACRYRKCLQAGMNLEARKTK

Variants of: B1
Experiment: abundance fitness (aPCA) (normalised: wild type 0, dead -1); higher = more abundant; growth selection in yeast, the domain comes from the species named
Conditions: Homo sapiens

A72Y and A72N are within error of each other in abundance fitness: 0.011 ± 0.061 for the first, -0.037 ± 0.072 for the second.

A72G and I46A are within error of each other in abundance fitness: -0.023 ± 0.032 for the first, 0.031 ± 0.034 for the second.

I46H and I46P are within error of each other in abundance fitness: -0.045 ± 0.063 for the first, -0.048 ± 0.042 for the second.

I46C and I46T are within error of each other in abundance fitness: -0.025 ± 0.045 for the first, 0.029 ± 0.049 for the second.

I46E and R29G are within error of each other in abundance fitness: -0.009 ± 0.037 for the first, -0.057 ± 0.034 for the second.

R29M and R29T are within error of each other in abundance fitness: -0.113 ± 0.046 for the first, -0.029 ± 0.056 for the second.

S11C and S11G are within error of each other in abundance fitness: -0.102 ± 0.07 for the first, -0.076 ± 0.036 for the second.

Compared with S11Q, S11W is lower in abundance fitness: 0.047 ± 0.053 for the first, -0.236 ± 0.05 for the second.

K28H and K28S are within error of each other in abundance fitness: -0.001 ± 0.065 for the first, -0.068 ± 0.044 for the second.

K28F and K28I are within error of each other in abundance fitness: -0.086 ± 0.086 for the first, -0.064 ± 0.078 for the second.

K28N and N43A are within error of each other in abundance fitness: -0.063 ± 0.058 for the first, -0.027 ± 0.034 for the second.

N43F and N43Q are within error of each other in abundance fitness: -0.02 ± 0.06 for the first, 0.028 ± 0.05 for the second.

N43T and N43I are within error of each other in abundance fitness: -0.134 ± 0.046 for the first, -0.233 ± 0.19 for the second.

K76V and K76Y are within error of each other in abundance fitness: -0.001 ± 0.047 for the first, -0.206 ± 0.17 for the second.

K76D and K76C are within error of each other in abundance fitness: 0.02 ± 0.068 for the first, 0.132 ± 0.14 for the second.

K76I and A30G are within error of each other in abundance fitness: -0.277 ± 0.28 for the first, -0.274 ± 0.038 for the second.

A30E and A30K are within error of each other in abundance fitness: -0.142 ± 0.043 for the first, -0.165 ± 0.062 for the second.

First: A30M
Second: C55V
The abundance fitness of the first is higher: 0.051 ± 0.053 for the first, -0.739 ± 0.06 for the second.

Compared with C55W, E9I is higher in abundance fitness: -0.588 ± 0.059 for the first, -0.038 ± 0.065 for the second.

E9C and E9P are within error of each other in abundance fitness: 0.083 ± 0.052 for the first, 0.074 ± 0.047 for the second.

E9M and E9W are within error of each other in abundance fitness: 0.042 ± 0.042 for the first, 0.062 ± 0.041 for the second.

Compared with R61K, R61Q is higher in abundance fitness: -0.017 ± 0.05 for the first, 0.101 ± 0.048 for the second.

First: R61F
Second: R61S
The abundance fitness of the first is lower: -0.13 ± 0.08 for the first, -0.004 ± 0.038 for the second.

First: A10S
Second: A10H
The abundance fitness of the first is higher: -0.079 ± 0.041 for the first, -0.235 ± 0.072 for the second.

Going from A10Q to A10K, the abundance fitness falls from -0.111 ± 0.05 to -0.408 ± 0.092.

A10D and G12L are within error of each other in abundance fitness: -0.251 ± 0.12 for the first, -0.166 ± 0.034 for the second.

G12S and G12E are within error of each other in abundance fitness: -0.063 ± 0.04 for the first, -0.057 ± 0.044 for the second.

G12M and G12A are within error of each other in abundance fitness: -0.071 ± 0.042 for the first, -0.101 ± 0.041 for the second.

First: G12W
Second: N54R
The abundance fitness of the first is lower: -0.153 ± 0.053 for the first, -0.053 ± 0.032 for the second.

N54L and N54M are within error of each other in abundance fitness: -0.021 ± 0.034 for the first, -0.064 ± 0.049 for the second.

Going from N54F to N54P, the abundance fitness falls from -0.061 ± 0.061 to -0.25 ± 0.049.

V17K and V17P are within error of each other in abundance fitness: -0.013 ± 0.38 for the first, -0.215 ± 0.064 for the second.

Compared with V17D, G16A is higher in abundance fitness: -0.405 ± 0.12 for the first, -0.216 ± 0.037 for the second.

Compared with G16C, G16R is higher in abundance fitness: -0.483 ± 0.12 for the first, -0.318 ± 0.04 for the second.

First: G16K
Second: C63R
The abundance fitness of the first is higher: -0.295 ± 0.055 for the first, -0.772 ± 0.082 for the second.

Going from C63Q to C3L, the abundance fitness falls from -0.661 ± 0.094 to -0.918 ± 0.11.

C3Q and C3N are within error of each other in abundance fitness: -0.686 ± 0.16 for the first, -0.67 ± 0.27 for the second.

C3P and C3K are within error of each other in abundance fitness: -0.84 ± 0.26 for the first, -0.823 ± 0.18 for the second.

C3D and C3R are within error of each other in abundance fitness: -0.653 ± 0.33 for the first, -0.771 ± 0.081 for the second.

Going from C3E to K62W, the abundance fitness rises from -0.787 ± 0.12 to -0.505 ± 0.064.

Compared with K62C, K62E is lower in abundance fitness: 0.007 ± 0.062 for the first, -0.2 ± 0.049 for the second.

Compared with K62S, K62P is lower in abundance fitness: -0.166 ± 0.044 for the first, -0.867 ± 0.11 for the second.

K62Q and K62G are within error of each other in abundance fitness: -0.066 ± 0.049 for the first, -0.105 ± 0.033 for the second.

Going from K62D to L38M, the abundance fitness rises from -0.336 ± 0.082 to 0.02 ± 0.049.

L38Q and L38H are within error of each other in abundance fitness: -0.024 ± 0.04 for the first, 0.035 ± 0.08 for the second.

L38P and L38Y are within error of each other in abundance fitness: -0.155 ± 0.047 for the first, -0.035 ± 0.077 for the second.

L38N and L38T are within error of each other in abundance fitness: 0.02 ± 0.072 for the first, -0.035 ± 0.049 for the second.

First: L38C
Second: D44W
The abundance fitness of the first is higher: -0.03 ± 0.056 for the first, -0.423 ± 0.09 for the second.

D44S and D44A are within error of each other in abundance fitness: -0.08 ± 0.044 for the first, -0.014 ± 0.035 for the second.

First: D44V
Second: D44I
The abundance fitness of the first is higher: -0.053 ± 0.036 for the first, -0.344 ± 0.14 for the second.

R51Q and R51A are within error of each other in abundance fitness: -0.002 ± 0.05 for the first, -0.072 ± 0.037 for the second.

R51S and R51V are within error of each other in abundance fitness: -0.023 ± 0.039 for the first, -0.068 ± 0.036 for the second.

Compared with R51M, R51P is lower in abundance fitness: 0.042 ± 0.05 for the first, -0.136 ± 0.054 for the second.

First: R51C
Second: R51L
The abundance fitness of the first is lower: -0.215 ± 0.068 for the first, -0.031 ± 0.041 for the second.

First: F27R
Second: E71R
The abundance fitness of the first is lower: -0.678 ± 0.053 for the first, -0.095 ± 0.033 for the second.

E71G and E71D are within error of each other in abundance fitness: -0.009 ± 0.032 for the first, 0.008 ± 0.048 for the second.

Compared with E71P, C6P is lower in abundance fitness: -0.038 ± 0.05 for the first, -0.931 ± 0.17 for the second.

Going from C6Y to C6W, the abundance fitness falls from -0.653 ± 0.13 to -1.03 ± 0.18.

C6Q and D48P are within error of each other in abundance fitness: -0.805 ± 0.16 for the first, -0.591 ± 0.075 for the second.

Compared with D48A, D48C is lower in abundance fitness: -0.327 ± 0.037 for the first, -0.529 ± 0.11 for the second.

Compared with D48R, Y60L is higher in abundance fitness: -0.536 ± 0.04 for the first, 0.002 ± 0.036 for the second.

Y60F and Y60I are within error of each other in abundance fitness: 0.004 ± 0.085 for the first, -0.09 ± 0.078 for the second.

First: Y60S
Second: L64A
The abundance fitness of the first is lower: -0.535 ± 0.06 for the first, -0.154 ± 0.039 for the second.

First: L64D
Second: G33T
The abundance fitness of the first is lower: -0.296 ± 0.064 for the first, -0.139 ± 0.055 for the second.

Compared with G33I, G33N is higher in abundance fitness: -0.121 ± 0.095 for the first, 0.115 ± 0.1 for the second.

First: G33F
Second: G33P
The abundance fitness of the first is higher: -0.052 ± 0.083 for the first, -0.265 ± 0.059 for the second.

Compared with G33R, G33C is lower in abundance fitness: -0.048 ± 0.03 for the first, -0.176 ± 0.065 for the second.

Compared with D8W, D8V is higher in abundance fitness: -0.521 ± 0.064 for the first, -0.219 ± 0.039 for the second.

Going from D8H to D8E, the abundance fitness rises from -0.203 ± 0.094 to -0.033 ± 0.048.

D8Q and E32G are within error of each other in abundance fitness: -0.035 ± 0.051 for the first, -0.04 ± 0.036 for the second.

E32L and E32Y are within error of each other in abundance fitness: -0.073 ± 0.032 for the first, -0.131 ± 0.065 for the second.

E32D and E32V are within error of each other in abundance fitness: -0.015 ± 0.07 for the first, -0.051 ± 0.036 for the second.

E32S and A40T are within error of each other in abundance fitness: -0.049 ± 0.034 for the first, -0.067 ± 0.044 for the second.

A40Y and A40H are within error of each other in abundance fitness: -0.032 ± 0.095 for the first, -0.192 ± 0.094 for the second.

A40M and A40R are within error of each other in abundance fitness: -0.058 ± 0.046 for the first, -0.043 ± 0.031 for the second.

L4M and L4Y are within error of each other in abundance fitness: 0.001 ± 0.042 for the first, -0.029 ± 0.062 for the second.

L4Q and L4R are within error of each other in abundance fitness: 0.047 ± 0.045 for the first, 0.017 ± 0.029 for the second.

L4E and L4N are within error of each other in abundance fitness: 0.024 ± 0.046 for the first, -0.01 ± 0.047 for the second.

First: V5G
Second: V5I
The abundance fitness of the first is lower: -0.732 ± 0.076 for the first, -0.007 ± 0.051 for the second.

First: V5R
Second: K53S
The abundance fitness of the first is lower: -0.669 ± 0.077 for the first, -0.009 ± 0.036 for the second.

K53R and K53G are within error of each other in abundance fitness: -0.015 ± 0.03 for the first, 0.039 ± 0.033 for the second.

Compared with K53Q, G67P is lower in abundance fitness: 0.016 ± 0.043 for the first, -0.904 ± 0.19 for the second.

First: G67N
Second: G67S
The abundance fitness of the first is higher: -0.226 ± 0.1 for the first, -0.516 ± 0.079 for the second.

For G67I, the abundance fitness was -0.415 ± 0.21.
